Laboratory results as given in patent publication US20240400696A1.
Positions count from the first letter of the chain named.

B1: AC3377 (bispecific antibody, V domains shown)
VH: EVQLLESGGGIVQPGGSLKLSCAASGFTFNTYAMNWVRQAPGKGLEWVGRIRSKYNNYATYYADSVKDRFTISRDDSKNTVYLQMNNLKTEDTAVYYCVRHENFGNSYVSWFAHWGQGTLVTVSS
VL: ELVVTQEPSLTVSPGGTVTLTCRSSNGAVTSSNYANWVQQKPGQAPRGLIGGTNKRAPGTPARFSGSLLGGKAALTLSGVQPEDEAVYYCALWYPNLWVFGGGTKLTVL
B2: AC3400 (bispecific antibody, V domains shown)
VH: B1 VH with G49A, Y55G
VL: B1 VL
B3: AC3398 (bispecific antibody, V domains shown)
VH: B1 VH with G49A, Y55A
VL: B1 VL
B4: AC3396 (bispecific antibody, V domains shown)
VH: B1 VH with G49A, S53T
VL: B1 VL
B5: AC3399 (bispecific antibody, V domains shown)
VH: B1 VH with G49A, Y55R
VL: B1 VL
B6: AC3385 (bispecific antibody, V domains shown)
VH: B1 VH with G49A, I51T
VL: B1 VL
B7: AC3397 (bispecific antibody, V domains shown)
VH: B1 VH with G49A, K54P
VL: B1 VL
B8: AC3401 (bispecific antibody, V domains shown)
VH: B1 VH with G49A, Y55K
VL: B1 VL
B9: AC3383 (bispecific antibody, V domains shown)
VH: B1 VH with G49A, I51A
VL: B1 VL
B10: AC3389 (bispecific antibody, V domains shown)
VH: B1 VH with G49A, R52Q
VL: B1 VL

These binders were tested against CD3 (assay: Octet, crude lysate).
Sequence of CD3 (P07766 23-126): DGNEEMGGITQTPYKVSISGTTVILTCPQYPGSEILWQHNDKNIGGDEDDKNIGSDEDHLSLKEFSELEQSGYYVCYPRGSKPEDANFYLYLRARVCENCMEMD

Kd [nM]	Binder
4.5	B1
20.1	B2
11.5	B3
4.8	B4
3.8	B5
425	B6
51	B7
5.1	B8
1180	B9
434	B10
